Laboratory results published in patent publication US20250241939A1, “NUCLEIC ACID-BASED DELIVERY SYSTEMS AND USES THEREOF” (Kodikaz Therapeutic Solutions, Inc., priority 2022, published 2025).

B1: 30 (nucleic acid, listed as Homo sapiens)
chain: AATATTAATTTGGGCTCTCCAGAGAAACAGAACCAATAGATTACACATAGATATATAGAAAGACAGTTATTACAAGGAATTGGCTCACAGGATTATGTAGGCTGAGAAGTCCCATGACCTGCCGTCTGCAAGCTGGAGACCCAGGAAAGCCGGTGGTGTAGTTCCAGTCCGAGTTGGGAGGTCTGAGAATCGGGAGAGCTGACAGAGTAAGCTCTAGTTGCAGCCTGGAGTCCAGAGGGCAAAGAACACCTATGTCCCATCTCAAGCACGGTCAGGCGTCCCAGCTCAAGCAGAGAGAAAGAAGACTTTCCTGCTCAGCCTCCTTGCTCTAAGCAGCCTCCCGACGGATTGGATGAAGCTCACCCACGCTGGGGAGGGCAGCCACCTTCACTCAGTCCACCAATTCAAATGCTAATCTCATCCAGAAACACCCTCACAGGCACACCCAGAAATAATGTTTAGCCACATATCTGGGCATCCTGAGGACCAGTCAAATTGACTCATAAGTCTCACCATCATA
B2: 35 (nucleic acid, listed as Homo sapiens)
chain: AAGATGGGGAGGATGGTGGTGGAGCAGGCTGGGGAGATGAGGAGCTTGAGGGGCCTAGGAGCTAACCACCCATTCACTGTTTATGGGTGGGGTGGCTCCGGGCAGGTGGCCTGACCCCTCTAAACCTCAGTTTCCCCATCTGTAAAATGGGAGTAATTGTACCTGCCTCACGGGCATGTAGCAGGTGGGAGAGAGAGTAATACGGGCAAGACGTCTAGTGCAGTGGCTGGAACATAACAAGCACCCAGCAAGTGGTGGCCCCATTGCT
B3: 32 (nucleic acid, listed as Homo sapiens)
chain: CTCCATGTTCTGACCTCAGGTGATCTGCCCGCCTCCGCCTCCCATAAGTTCCTTCTGCACCTATTCCATTCCATCTGCAATGTCATCCTGGCCAACCTGTGAATGGGTATAGCAGGATAGTAAGTTAGTCCCAGTGTTTAGGCAGACTCCATAGACCAGATTTAACGTGTTTGTATAAACCGCATGGCTCGCTCTTACTCAGCCTTCGGGTCGGCCTTAAGATACACAGTTTTAAGAAAAGCATTGTCTTCACTCTTAGTGTAGATCAGGTCCTCCTCNCCCCCANCACGTTATGTCCCTGTCATTGAACATTATACTTTTATGAAGAATTGTGAGCTGTCTGAGATTTTACCTTACTTGCAAACTAACAAGTGGGCCTGCCATAGTTTCATGTCTGGCAGAAGACTCCAACAGGTCAGAGATTTTCATCTGTCTTGTTCACTATTGTCTACATAGTGCCTGGAAAAATGCCTGGCACACAGTAAACCCTCAATCAGTATTTTATGAATGAGTGAAC
modifications: misc_difference 279 a, c, t, g, unknown or other; misc_difference 286 a, c, t, g, unknown or other
B4: 41 (nucleic acid, listed as Homo sapiens)
chain: CCCTTGAACTTATTAAAATCTTTTATAATGTAGTACATTTACTGACTGCTTTCAGGCAGGCATGAGGACCTTTCACTCCATTTGCTCCATTGTCCCTTTTGAAGGATTCTTGTCATATATATAAAACCTCTTAAGACATAATGTTATTGTTTTATATACTCTTTAATCACCTACATCTTTGCACTTTAATATTTCCTAAATTTGCATTCTTCTCTCTGGGACTAGAAGACCTCAGCTTAGCGGTTCTTTTCATGTGGGCCTGAGAAATTTTCTCACTTTTTGTTTCACTTTCATTCTTGAAGGAACGTTTCACTGGTTATAGGATGCAAGGTTAGCGGTTATTCTCTTCTGCATCTTCCCACTGCATTGTCTTCTGAATCTTATAATTTATGTAAAAACATTAGTTGTCTGTCTTCCCATTGCTTCTGTGAAAATAATGCATGTTTTCCTCTGGTTGTTTTTGACATTTTCTTTGTGTCTGTTTCTCAGCAATTTTTCCATGATATATGCTCGGAGCGGGCTTACTTATCCTACACCCTGAATCTGTAGCTTGACGTCTTTTTGTCAACTTTGGAAAGTTTTTGGCATTATCTCATCAAATATTTCCCCTGTCCTGTTCTTGCTCTTCTCTTGCTGGAGTGCAGTCGTTCCTGTATTAGACCTTTGCATCATGTTCTAGGTATTTTTATCT
B5: 33 (nucleic acid, listed as Homo sapiens)
chain: TGTGTTAGTCAGGATAGGCTAACCTCTGTAACACACAACCCCAATTTTTCAGTGGCTCAGAACAATAGGAGTTTCTTTCTTACTCATGTAAAGTCCAGGTGTGGCAGAAACTTGCGGGGGAGAAAGTCTACTCCACAGCATCACTCAGGGACCCAGGCTCCTGCCTTACGGTGGTTCCGCCATTTTCCAGGGCCTCGGAGTCCTCCATCCCATCTCCTCCATTCAGCTGGTGGATGTGGGAGGAGAGCGTGTATGAAAGACCACACAGAAGCTTTTTTTGGGCCAGGCTTTGAGACGGCGCACATCAGTTTCGCTCTTGTTGCCCAGGCTGGAGTGCAATGGCGCAATCTCGGCTCACCGCAAAAGACACTGGGAAATTTGGTCTGGCCATGTGTCTAGGAAGCAGAGGAGATGGGGTTTCATAAACTCCTGAACTCTCTCTACCACG
B6: 47 (nucleic acid, listed as Homo sapiens)
chain: AGGCCTGGCACAGTGGCTCATGCGTGTAATCCCAACACTGCGGGAAGCTGAGGCAGGAGGATCACTTGAGCCCAGGAGCTCATGGCTGTAGTGAGCTGTGATTGCACCACTGCACTGCACTCCAGCCTGGGCAACAGCAAGACCCTGTCTCCAAAAAAAAAAAACAAAACAAATTAAT
B7: 39 (nucleic acid, listed as Homo sapiens)
chain: GTATTTAGATTCCCAGACTTTGGAGCCAGATCGGCTGAGTTCAAACCCTGTCTGTGCAACTATCAGCTGTTCAGCTGTGTGACCTTGGGCAAGTTACTTAACCTCTCTGAACCCTGATTCCTCCTGCAAACGGTGGGAAAAATAATAGAACCAATCTCTCTGGGTTGCTGTAAGGATTAAATTAATTTACAGTGCATGTAACATGCTTACAGCAATGTCTGGCACACAGTAAGCACTAAGTATTTGTTGTTATTTGTCATC
B8: 49 (nucleic acid, listed as Homo sapiens)
chain: CTTTAACCTCCTTGTTACGTTTGTCTCTTCCAGAATCGAAGCTGTAAAACTACAAATGGTTCTTCAAATGGAGCCCCAGATGCAGTCCATGACTAAGATCTACCGCGGACCCCTGGACTGGCCTGCTAGCCCATGCTCCAATGTTGATGACATTGAAGGCACCCCTCCCAAGGAAATCTCAACTGCACGACCCCTACTATGCCCCAATTCAGCATGAAGCAGTTAAGAGCGGTTGTCAGCCAACCTCCCCAACAGCACTTGGGTTTTCCTGTTGAGAGGTGGGACTGAGAGA
B9: 46 (nucleic acid, listed as Homo sapiens)
chain: CACCCAAGTCACCTCTTGAATGCTTTGCTGCTTAGACATTTCTTCTGCCAGATACCCTAAATAATCTCTCTCAAGTTCAAAGTTCCACAAATCTCTAGGGCAGGGGCAAAATGCCACCAGTCTGTTTGCTAAAACATAACAAGAGTCATCTTTGCTCCAGTTCCCAACAAATTCCTTATCTCCATCTGAGACCACCTTATCCTGGATTTCATTGTCCATATCATTATCAGCATTTTGGTCAAAGCCACTCCACAAGTCCCTAGGAAGTTCCAAACTTTCCCACATTTTCCTGTCTTCTTCTGAGGCCTCCAACCTATTCCACCCTCTGTCTGTTACCCAGTTCCAAAGTTGCTTCTACATTTTCAGGTGTCTTTTCAGCAGTGCCACACTCTACTGGTACTAATTTAC

Test system: MIA (pancreatic cancer) cell genome
Assay: ctDNA coculture with MIA cells, whole genome sequencing: genomic insertion sites, transposons at insertion points and SNVs (pancreatic cancer)
Format: cell-based, human
Conditions: for blast orientation / blast chr / Transposon orientation / Distance from insertion / Location relative to insertion: TABLE 8, pancreatic cancer co-culture; for blast orientation: BLAST alignment orientation; for blast chr: chromosome with the longest result for BLAST analysis of the full contig; for Transposon orientation: compared with the human reference genome; for Distance from insertion: distance between insertion and the transposon (0 if they overlap); for Location relative to insertion: location of the transposon relative to the insertion on the contig; for Gene / Location / No. SNP / Chr location: TABLE 4; for Gene: gene at identified genomic insertion site; for Location: identified genomic insertion site, chromosome; for No. SNP: number of single nucleotide variants (SNVs or SNPs) identified, polynucleotides for pancreatic cancer cells; for Chr location: position on the chromosome of the identified genomic insertion site
Description: The integration of ctDNAs into the host cell genome was evaluated. ctDNA was extracted from patient plasma, cultured for 24 hours with cells of a matching cancer cell type or non-matching cancer cell type, and whole genome sequencing was performed. The cell lines used were MM1s (multiple myeloma, MM) and MIA (pancreatic cancer, PC).
The sequence data was used to reconstruct genomic contigs for each experimental condition by de novo assembly. […] Coculture contigs carrying a ctDNA insertion were identified using NucDiff analysis.
Experiments were designed to identify the presence of transposons in ctDNA fragments. To map ctDNA genomic junctions more precisely, a PACBIO probe was ligated to multiple myeloma and pancreatic cancer ctDNA samples to label their 5′ and 3′ ends. Whole-genome sequencing of DNA from cells with ctDNA genomic integration was done using the Illumina platform. De novo assembly was performed on the sequencing output. ctDNA contigs containing PACBIO adaptor were then matched to those contigs containing inserted ctDNA sequences identified in the coculture experiments. Transposable element on ctDNA sequences at the insertion points (<100 nucleotides from transition point between cell and ctDNA) were detected and classified using RepeatMaster.
A search was conducted for transposons that preferentially target cells of matching tumor types. The lists of transposons identified at the ctDNA insertion point in matching and mismatched coculture conditions were compared (e.g., MM ctDNA with MM cells or PC cells). Transposons were selected that were uniquely or preferentially inserted in the matching conditions.
Whole-genome sequencing and Whole exon sequencing: ctDNA was extracted from 10 MM and 10 PC patients. DNA from CD138 (+) cells and from cell lines used in in vitro experiments (MM1s and MIA) was extracted using Blood & Cell Culture DNA Mini Kit (Quiagen, MD). DNA from […] paraffin embedded pancreatic tumors was obtained using QIAamp DNA FFPE Tissue Kit Print (Qiagen, MD).
After extraction, ctDNA was ligated to the PACBIO adaptor ([…]) using the ABM DNA Library Prep Kit for Illumina Sequencing (Applied Biological Materials Inc. Canada). PACBio-labeled ctDNA and regular ctDNA were subjected to standard methods for library preparation and sequencing using Illumina and Agilent protocols, respectively. Applied Biological Materials Inc. prepared the libraries and performed whole-exon and -genome sequencing.
Identification of transposable elements and its nucleotide variants: To determine the locations of transposable-like regions in contigs, sequences were analyzed and transposable elements (TEs) were identified and classified using RepeatMasker version 4.1.0 and the Dfam database (release 3.1) of repetitive DNA families was used as a reference for identifying repeats in ctDNA contig sequences that were part of qualifying structural events. For each repeat sequence identified by RepeatMasker, the overall frequency of the specific repeat (e.g., for AluSp or L1) and their parent class (e.g., SINE) was computed.
Once the TE elements were identified, hit repeats/TE sequences, unique contigs for all samples, and insertion sequence were aligned with MAFFT software version. Mutations in TE sequences were identified by comparison of nucleotides at each position in the multiple sequence alignment with the “Biostrings” R package (version 4.1). A position was considered to contain mutation if the substitution was present in contigs of all samples.

Molecule | blast orientation | blast chr | Transposon orientation | Distance from insertion | Location relative to insertion | Gene | Location | No. SNP | Chr location
L1ME4b | Plus/Plus | chr7 | direct | +1930 | right |  |  |  | 
Mam_R4 | Plus/Plus | chr9 | direct | 0 | intersect |  |  |  | 
B1 |  |  |  |  |  | RAB7A | Chr3 | 1 | 
B2 |  |  |  |  |  |  | Chr14 | 0 | 
B3 |  |  |  |  |  |  | Chr21 | 5 | 
B4 |  |  |  |  |  | GRB10 | Chr 7 | 1 | 50660129
B5 |  |  |  |  |  |  | Chr21 | 4 | 
B6 |  |  |  |  |  | LINE1/Alu | Chr 10 | 4 | 14247220
B7 |  |  |  |  |  |  | Chr 2 | 1 | 27942978
B8 |  |  |  |  |  | AIG1 | Chr 6 | 5 | 143409567
B9 |  |  |  |  |  |  | Chr 5 | 2 | 107782747
